test: yeast display, Sf9 membrane polyspecificity reagent, FACS + sequencing; frameworks hold sequencing errors
In short: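 Nanobodies from a synthetic yeast display library (Saccharomyces cerevisiae BJ5465), induced 36–48 hours with galactose, were stained 1 hour at 4 °C with 10% biotinylated, detergent-solubilized Sf9 membrane reagent, enriched on streptavidin microbeads, then FACS-sorted. Anti-HA (expression) and streptavidin (reagent binding) fluorescence set low and high (top ~1%) gates. Polyreactivity labels come from the gate of origin. Genes were colony-PCR amplified, MiSeq 2 × 250 sequenced and filtered by CDR length.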

Sequence | polyreactivity (PSR sort gate)
QVQLVESGGGLVQAGGSLRLSCAASGRIFPLYAMGWYRQAPGKERELVAAITSSGGSTYYADSVKGRFTISRDNAKNTVYLQMNSLKPEDTAVYYCADEGYYSNYHYWGQGTQVTVSS | low polyreactivity
QVQLVESGGGLVQAGGSLRLSCAASGRIFPRYAMGWYRQAPGKERELVAAISWSGGRTYYADSVKGRFTISRDNAKNTVYLQMNSLKPEDTAVYYCAKYVGWYGSPGYDYWGQGTHVTVSS | low polyreactivity
QVQLVESGGGLVQAGGSLRLSCAASGRIFPSYAMGWYRHAPGKERELVAAITSSDSTYNADSVKGRFTISRDNAKNTVYFQMNSLKPEDTAVYYCAAAYSYSGWWWFDYWGQGTQVTVSS | high polyreactivity
QVQLVESGGGLVQAGGSLRLSCAASGRIFPSYAMGWYRQAPGKERELVAAISYSGASTYYADSVKGRFTISRDYAKNTVSLQMNSLKPEDTAVYYCNQLVEEDYWGQGTQVTVSS | low polyreactivity
QVQLVESGGGLVQAGGSLRLSCAASGRIFPTNAMGWYRQAPGKERELVASITRSGSTYYADSVKGRFTISRDNAKNTVYLQMNSLKPEDTAVYYCAADRSAVQFSAFLEYDYWGQGTQVTVSS | low polyreactivity
QVQLVESGGGLVQAGGSLRLSCAASGRIFPTYAMGWYRQAPGKERELVATITRRGGSTYYADSVKGRFTISRDNAKNTVYLQMNSLKPEDTAVYYCAARLWGTIRYDYWGQGTQVTVSS | high polyreactivity
QVQLVESGGGLVQAGGSLRLSCAASGRIFPTYTMGWYRQAPGKERELVAAINRGGGSTYYADSVKGRFTISRDNAKNTVYLQMNSLKPEDTAVYYCNARTYYRYYGYDYWGQGTQVTVSS | low polyreactivity
QVQLVESGGGLVQAGGSLRLSCAASGRIFPVNAMGWYRQATGKERELVARISWRGGTYYADSVKGRFTISRDNAKNTVYLQMNSLKPEDTAVYYCAATLPSTSYWYQYGYWGQGTQVTVSS | high polyreactivity
QVQLVESGGGLVQAGGSLRLSCAASGRIFPVYAMGWYRQAPGKERELVAAIRRTGGSTYYADSVKGRFTISRDNAKNTVYLQLNRLKPEDTAVYYCSVSSQPPLSRYGRFGVGYWGQGTQVTVSS | high polyreactivity
QVQLVESGGGLVQAGGSLRLSCAASGRIFPVYTMGWYRQAPGKERELVAAISGNGASTYYADSVKGRFTISRDNAKNTVYFHMNRLKPEYTAVYYCAAYFYYWGSTFVRYEYWGQGTQVTVSS | high polyreactivity
QVQLVESGGGLVQAGGSLRLSCAASGRIFPWNPMGWYRQAPGKERELVAGINNGDRTYYADSVKGRFTISRDNAKNTVYLQMNSLKPEDTAVYYCAVDTWYFLFQYGYYQEGDYWGQGTQVTVSS | low polyreactivity
QVQLVESGGGLVQAGGSLRLSCAASGRIFPWYAMGWYRQAPGKERELVAAISWSGGRTYYADSVKGRFTISRDNAKNTVYLQMNSLKPEDTAVYYCAAERVTYTISYSYSYDYWGQGTQVTVSS | high polyreactivity
QVQLVESGGGLVQAGGSLRLSCAASGRIFPWYSMGWYRQAPGKERELVAAISSSGGRTYYADSVKGRFTISRDNAKNTVYLQMNSLKPVDTAVYYCAADRRYISQRTYNYWGQGTQVTVSS | high polyreactivity
QVQLVESGGGLVQAGGSLRLSCAASGRIFPWYTMGWYRQAPGKERELVATIRGSGGSTHYADSVKGRFTISRDNAKNTVYLQMNSLKPEDTAVYYCATDRPRYRYQYKFDYWGQGTQVTVSS | low polyreactivity
QVQLVESGGGLVQAGGSLRLSCAASGRIFPYNAMGWSRQAPGQERELVARIDSGGRTNYADSVKGRFTISRDNAKNTVYLQMNSLKPEDTAVYYCARVFSLARSWYRYYYWGQGTQVTVSS | high polyreactivity
QVQLVESGGGLVQAGGSLRLSCAASGRIFPYNAMGWYRQAPGKEREFVASIRTRGVSTYYADSVKGRFTISRDNAKNTVYLQMNSLKPEDTAVYYCNAQRPGYAKGPRYDYWGQGTQVTVSS | high polyreactivity
QVQLVESGGGLVQAGGSLRLSCAASGRIFPYNVMGWYRPATGKERELVAAISWSGGRTYYADSVKGRFTISRDNAKNTVYLQMISLKPEDTAVYYCNTRTLVAMGYWGQGTQVTVSS | high polyreactivity
QVQLVESGGGLVQAGGSLRLSCAASGRIFPYYAMGWSRQAPGKERELVAAISLSGGSTYYADSVKGRFTISRDNAKNTVYLQMNSLKPEDTAVYYCNAVASTYGYYWYPGLGYDYWGQGTQVTVSS | low polyreactivity
QVQLVESGGGLVQAGGSLRLSCAASGRIFPYYAMGWYRQAPGKERELVAAISRIGGRTYYADSVKGRFTISRDNAKNTVSLQMNSLKPEDTAVYYCAAGYGGTFNCGQGTQVTVSS | high polyreactivity
QVQLVESGGGLVQAGGSLRLSCAASGRIFPYYAMGWYRQAPGKERELVAAITARGGRTYYADSVKGRFSISRDNAKNTVYLQMNSLKPEETAVYYCNTGGRSGSPGYDYWGQGTQVTVSS | high polyreactivity

Sequence | polyreactivity (PSR sort gate)
QVQLVESGGGLVQAGGSLRLSCAASGRIFPYYAMGWYRQAPGKERELVASTNYADSVKGRFTISRDNAKNTVYLQMNSLKPEDTAVYYCAADGYRYSVYLIRNPMDYWGQGTQVTVSS | low polyreactivity
QVQLVESGGGLVQAGGSLRLSCAASGRIFPYYAMGWYRQAPGKERELVATITWRGGITYYADSVKGRFTISRDNAKNTVYLQMNSLKPEDTAVYYCAVRKVYRSSFDYWGQGTQVTVSS | high polyreactivity
QVQLVESGGGLVQAGGSLRLSCAASGRIFPYYAMGWYRQEPGKEREFVAAISSSGDSTYYADSVKGRFTISRDNAKNTVYLQMNSLKPEDTPVYYCATRYRSSQWYSPYKYDYWGQGTQVTLSS | low polyreactivity
QVQLVESGGGLVQAGGSLRLSCAASGRIFPYYDMGWYRQAPGKEMELVATITWRGGITYYADSVKGRFTISRDNAKNTVYLQMNSLKPEDTAVYYCAVRKVYRSSFDYWGQGTQVTVSS | high polyreactivity
QVQLVESGGGLVQAGGSLRLSCAASGRIFPYYTMGWYRQAPGKERELVAAITSGGITYYADSVKGRFTISRDNAKNTVYLQMKSLKPEDTAVYSCAALHSGKYTRYKYGYWGQGTQVTVSS | high polyreactivity
QVQLVESGGGLVQAGGSLRLSCAASGRIFQANAMGWYRQAPGKERELVAAISWSGGSTYYADSVKGRFTISRDNAKNTVYLQMNSLKPEDTAVYYCAKDYVHQYGVYKVWANNYNYWGQGTQVTVSS | low polyreactivity
QVQLVESGGGLVQAGGSLRLSCAASGRIFQDNAMGWSRQAPGNERELVAAISKSGGITYYADSVKGRFTISRDNAKNTVYLQMNSLKPEDTAVYNCAAVWSRFLISYSTGWWFEYWGQGTQVTVSS | low polyreactivity
QVQLVESGGGLVQAGGSLRLSCAASGRIFQEYAMGWYRQAPGKERELVAAISSGGGSTYYADSVKGRFTISRDNAKNTVYLQMNSLKPEDTAVYYCAARVYIAYISMDHWGQGTQVTVSS | low polyreactivity
QVQLVESGGGLVQAGGSLRLSCAASGRIFQGYAMVWYRQAPGKERELVARITSGSNTNYADSVKGRFTISRDNAKNTVYLQMNSLKPEDTAVYYCAKEPVGSVRYGRFQQDDYWGQGTQVTVSS | low polyreactivity
QVQLVESGGGLVQAGGSLRLSCAASGRIFQGYVMGWYRQAPGKERELVAVISRRGGITNYADSVKGRFTISRDNAKNTVYLQMISLKPEDTAVYYCNDVTRVYNNGQYGYWGQGTQVTVSS | high polyreactivity
QVQLVESGGGLVQAGGSLRLSCAASGRIFQIYAMGWYRQAPGKERELVAAIRSGSNTNYADSVKGRFTISRDNAKNTVYLQMNSLKPEDTAVYYCAADGWYSAVGVWLEYDYWGQGTQVTVSS | low polyreactivity
QVQLVESGGGLVQAGGSLRLSCAASGRIFQIYAMGWYRQAPGKERELVAAIRSGSNTNYADSVKGRFTISRDNAMNTVYLQMNSLKPEDTAVYYCNALYTSLRKYNYWGQGTQVTVSS | low polyreactivity
QVQLVESGGGLVQAGGSLRLSCAASGRIFQIYAMGWYRQAPGKERELVAAISNRGGSTYYADSVKVRFTISRDNAKNTVYLQMNSLKPEDTAVYYFNATTGYGGYNYWGQGTKVTVSS | low polyreactivity
QVQLVESGGGLVQAGGSLRLSCAASGRIFQKYAMGWYRQAPGKERELGAAISSGDSTYADSVKGRFTISRDNAKNTVYLQMNSLKPEDTAVYYCAVDLYDPWWYSYIGEYEYWGQGTQVTVSS | low polyreactivity
QVQLVESGGGLVQAGGSLRLSCAASGRIFQNYALGWYRQAPGKERELVATISSGVSTYYADSVKGRFTISRDNAKNTVYLQMNSLKPEDTAVYYCAAYVPWFEMDYWGQGTQVTVSS | low polyreactivity
QVQLVESGGGLVQAGGSLRLSCAASGRIFQPNVMGWYRPAPGKERELVAAIRSGSSTYYADSVKGRFTISRDNAKYTVYLQMNCLKPEDTAVYFCATRYRKQYKPYEYWGQGTQVTVSS | high polyreactivity
QVQLVESGGGLVQAGGSLRLSCAASGRIFQRNAMGWYRQAPGKERELVAAITSTGVRTYYADSVKGRFTISRDNAKNTVFLQMNSLNPEDTAVYYCAVRGERRYYGSKEDYWGQGTQVTVSS | high polyreactivity
QVQLVESGGGLVQAGGSLRLSCAASGRIFQRYAMGWSRQAPGKERELVAPISWSVSSTYYADSVKGRFTISRDNAKNTVYLQMNSLKPEDTAVYYCNAAFHVTLGYLYREYDYWGQGTQVTVSS | high polyreactivity
QVQLVESGGGLVQAGGSLRLSCAASGRIFQRYAMGWYRQAPGKERELVAAISSRGGRTFYADSVKGRFTISRDNAKNTVYLQMNSLKPEDTAAYYCAATATVGSVTFDYWGQGTQVTVSS | high polyreactivity
QVQLVESGGGLVQAGGSLRLSCAASGRIFQWNTMGWYRQAPGKEREFVAAISGSGVSTYYADSVKGRFTISRDNAKNTVYLQMNSLKPEDTAVYYCATTYPAYGRRGYDYWGQGTQVNVSS | high polyreactivity

Source: the nanobody polyreactivity screen of Harvey et al. (2022)
